The record followed here is patent publication US20160377619A1 (published 2016).

In this assay the target is lysyl-tRNA synthetase (KRS), recombinant (human, UniProt Q15046 1-597). The experiment in a line: SPR.
Sequence of lysyl-tRNA synthetase (KRS), recombinant (Q15046 whole entry): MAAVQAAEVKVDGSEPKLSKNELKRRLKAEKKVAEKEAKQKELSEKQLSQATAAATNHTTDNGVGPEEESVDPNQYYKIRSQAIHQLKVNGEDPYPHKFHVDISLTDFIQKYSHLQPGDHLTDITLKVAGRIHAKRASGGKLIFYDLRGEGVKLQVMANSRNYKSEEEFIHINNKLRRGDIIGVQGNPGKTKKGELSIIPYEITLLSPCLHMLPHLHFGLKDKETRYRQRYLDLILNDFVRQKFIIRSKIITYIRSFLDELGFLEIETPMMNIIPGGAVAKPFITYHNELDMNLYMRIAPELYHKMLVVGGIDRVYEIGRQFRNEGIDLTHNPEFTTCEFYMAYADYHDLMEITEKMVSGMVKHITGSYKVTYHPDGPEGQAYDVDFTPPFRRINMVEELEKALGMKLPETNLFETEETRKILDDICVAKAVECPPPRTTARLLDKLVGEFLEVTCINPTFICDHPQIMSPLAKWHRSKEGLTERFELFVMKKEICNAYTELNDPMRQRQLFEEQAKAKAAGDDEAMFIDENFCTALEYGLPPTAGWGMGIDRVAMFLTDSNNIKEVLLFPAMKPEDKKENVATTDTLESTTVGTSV

B1: anti-KRS scFv Biocon-K1 (scFv)
scFv: EVQLLESGGGLVQPGGSLRLSCAASGFTFSNYAMSWVRQAPGKGLEWVSGISPSSGDTYYADSVKGRFTISRDNSKNTLYLQMNSLRAEDTAVYYCAKGVWWYHPLLFDYWGQGTLVTVSSGGGGSGGGGSGGGGSQSVLTQPPSASGTPGQRVTISCSGSSSNIGNNTVSWYQQLPGTAPKLLIYANSKRPSGVPDRFSGSKSGTSASLAISGLRSEDEADYYCGAWDSSLSGYVFGGGTKLTVL
As for B1, the dissociation constant (Kd) worked out at 110 nM.
